The values below come from patent US20180064825A1 (INSERM INSTITUT NATIONAL DE LA SANTE ET DE LA RECHERCHE …, published 2018).

Test [1] deals with T1, human PD-L1 (Programmed Cell Death 1 Ligand 1) (human, UniProt Q9NZQ7 19-290).
T1 construct: whole, on cells; Endogenous PD-L1 on breast cancer cell lines; also called CD274; PDCD1LG1
In words: saturation binding / Scatchard analysis on cells, 3-3000 pM ^111In-PD-L1.3.1 in 1 ml, 4 h on ice, non-specific binding (100 nM PD-L1.3.1) subtracted; the panel does not name the cell line (MDA-MB-231 cells were used in subsequent binding assays). As for the experimental part:
(§1) Cells were cultured to confluency in six-well plates and were incubated for 4 h on ice with increasing concentrations ¹¹¹In-PD-L1.3.1 (3-3000 pM) in 1 ml RPMI1640 containing 0.5% BSA. Non-specific binding was determined by co-incubation with 100 nM PD-L1.3.1. After incubation, cells were washed with PBS and the cell-associated activity was measured in a shielded well-type gamma counter. The specific binding (total binding−nonspecific binding) was plotted against the bound/free ratio. Data were analyzed by linear regression to determine PD-L1 receptor density per cell and to determine the Kd of ¹¹¹In-PD-L1.3.1.

Test [2] addresses T1, human PD-L1 (Programmed Cell Death 1 …). Kind of test: Scatchard analysis on cells (MDA-MB-231 used for binding assays), 3-3000 pM ^111In-PD-L1.3.1, 4 h on ice, gamma counter; 111In-labeled antibody; Scatchard affinity on MDA-MB-231 cells. As for the experimental part: as §1
For test [3] the target is unchanged. Kind of test: competition on MDA-MB-231 cells, 4 h on ice; unlabeled PD-L1.3.1 (1-1000 pM) against 20 pM ^111In-PD-L1.3.1 as competitor; gamma counter; unlabeled antibody; competition IC50 on MDA-MB-231 cells. As for the experimental part: MDA-MB-231 cells were cultured to confluency in six-well plates. The 50% inhibitory concentration (IC₅₀) of PD-L1.3.1 blocking of ¹¹¹In-PD-L1.3.1 binding was determined by incubating the cells for 4 h on ice in 1 ml RPMI1640 0.5% BSA, containing 20 pM ¹¹¹In-PD-L1.3.1 (1 kBq) and increasing concentrations of unlabeled PD-L1.3.1 (1-1000 pM). After incubation, cells were washed with PBS and the cell-associated activity was measured in a gamma counter. The IC₅₀ was defined as the antibody concentration that was required to inhibit binding of the radio labeled antibody by 50%. IC₅₀ values were calculated using GraphPad Prism.

T1 sequence (Q9NZQ7 19-290): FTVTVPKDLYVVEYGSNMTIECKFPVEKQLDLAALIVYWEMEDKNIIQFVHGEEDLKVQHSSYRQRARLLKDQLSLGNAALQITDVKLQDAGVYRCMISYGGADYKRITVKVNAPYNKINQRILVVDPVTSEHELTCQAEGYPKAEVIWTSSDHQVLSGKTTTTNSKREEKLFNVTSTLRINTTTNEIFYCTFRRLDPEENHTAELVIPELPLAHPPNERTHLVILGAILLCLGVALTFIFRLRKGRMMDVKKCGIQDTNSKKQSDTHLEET

B1: ^111In-DTPA-PD-L1.3.1 (antibody, V domains shown)
VH: EVQLQQSGTELVKPGASVKLSCTTSGFNIQDTYMHWVKQRPEQGLEWIGWIDPANGNTKYDPKFQGKATIIADTSSNTAYLQLRGLTSEDTAVYYCARSGVSTAHFDYWGQGTTLTVSS
VL: QIVLSQSPAILSASPGEKVTMTCRASSSVSFMHWYQQKPGSSPKPWIYATSNLASGVPTRFSGSGSGTSYSLTLSRVEAEDAATYYCQQWSSYPRTFGGGTKLEIK
modifications: ITC-DTPA conjugated and chelating ^111In; residues and chain not stated
For B1, the Kd in test [1] was determined as 1000 pM; in test [2] it was 970 pM.

B2: PD-L1.3.1 antibody (murine monoclonal IgG1, unlabeled) (antibody, V domains shown)
VH: EVQLQQSGTELVKPGASVKLSCTTSGFNIQDTYMHWVKQRPEQGLEWIGWIDPANGNTKYDPKFQGKATIIADTSSNTAYLQLRGLTSEDTAVYYCARSGVSTAHFDYWGQGTTLTVSS
VL: QIVLSQSPAILSASPGEKVTMTCRASSSVSFMHWYQQKPGSSPKPWIYATSNLASGVPTRFSGSGSGTSYSLTLSRVEAEDAATYYCQQWSSYPRTFGGGTKLEIK
notes: also called PD-L1.3.1 mAb; unlabeled PD-L1.3.1
Turning to B2, the half-maximal inhibitory concentration (IC50) in test [3] was 150 pM.
